Test results as given in patent US20250387450A1.

B1: engineered scaffold protein S005 (designed binder)
chain: MIKEEHVIIQAEFYLNPDQSGEFMFDFDGDEIFHVDMAKKETVWRLEEFGRFASFEAQGALANIAVDKANLEIMTKRSNYTPMGDTRPRFLWQLKFECHFFNGTERVRLLERCIYNQEESVRFDSDVGEYRAVTELGRPDAEYWNSQKDLLEQRRAAVDTYCRHNYGVGESFTVQGGSHHHHHHLE
B2: engineered scaffold protein S068 (designed binder)
chain: GDTRPRFLWQLKFECHFFNGTERVRLLERCIYNQEESVRFDSDVGEYRAVTELGRPDAEYWNSQKDLLEQRRAAVDTYCRHNYGVGESFTVQRRVEPKVTVYPSKTQPLQHHNLLVCSVSGFYPGSIEVRWFRNGQEEKAGVVSTGLIQNGDWTFQTLVMLETVPRSGEVYTCQVEHPSVTSPLTVEWRASGGGGSGGGGSGGGGIKEEHVIIQAEFYLNPDQSGEFMFDFDGDEIFHVDMAKKETVWRLEEFGRFASFEAQGALANIAVDKANLEIMTKRSNYTPITNVPPEVTVLTNSPVELREPNVLICFIDKFTPPVVNVTWLRNGKPVTTGVSETVFLPREDHLFRKFHYLPFLPSTEDVYDCRVEHWGLDEPLLKHWEFDAPSGGSHHHHHHLE
B3: engineered scaffold protein S090 (designed binder)
chain: IKEEHSIRQNEMYLNPDQSGLFEFHLDGQPIFRVDMQKKRTKWQLEEFGRFASFEAQGALANIAVDKANLEIMTKRSNQSEAGSHSWQLIFVCEFHEGTESVRLSERCYYNQELSVSFNSDVGEYRAVTELGRPDAEYWNSQKDLLEQRRAAVDTYCRHNYGVGESFTVQRRGGSHHHHHHLE

What follows are binders tested against TRPV1 disordered region polypeptide (UniProt Q8NER1) (assay: modified sandwich ELISA, fluorescence grade by the table's key).

Binder	fluorescent signal (fluorescentsignal)
B1	100000 to 250000
B2	50000 to 100000
B3	100000 to 250000
